These are literature values, as cited in paper PMC10219982.

In the data set the target is Follistatin (UniProt P19883). As to the kind of experiment: SPR.
UniProt P19883, sequence (P19883 30-344): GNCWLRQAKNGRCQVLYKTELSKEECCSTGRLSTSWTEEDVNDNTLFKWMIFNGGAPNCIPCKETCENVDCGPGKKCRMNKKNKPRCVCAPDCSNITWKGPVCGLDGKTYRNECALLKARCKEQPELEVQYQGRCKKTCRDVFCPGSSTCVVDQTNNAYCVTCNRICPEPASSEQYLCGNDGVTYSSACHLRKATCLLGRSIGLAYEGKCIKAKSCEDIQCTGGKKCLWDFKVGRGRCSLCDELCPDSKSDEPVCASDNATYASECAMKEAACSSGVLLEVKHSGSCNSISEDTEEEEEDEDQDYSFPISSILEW

A word on the Kd: it is the constant that tells how readily two partners part at equilibrium. In the case of BMP4 (from UniProt P12644), the Kd was 22.5 nM.
